Earlier results, collected in paper PMC8262464.

Target: TLR2 (Homo sapiens) (UniProt O60603)
Test: SPR

UniProt O60603, sequence (O60603 21-588): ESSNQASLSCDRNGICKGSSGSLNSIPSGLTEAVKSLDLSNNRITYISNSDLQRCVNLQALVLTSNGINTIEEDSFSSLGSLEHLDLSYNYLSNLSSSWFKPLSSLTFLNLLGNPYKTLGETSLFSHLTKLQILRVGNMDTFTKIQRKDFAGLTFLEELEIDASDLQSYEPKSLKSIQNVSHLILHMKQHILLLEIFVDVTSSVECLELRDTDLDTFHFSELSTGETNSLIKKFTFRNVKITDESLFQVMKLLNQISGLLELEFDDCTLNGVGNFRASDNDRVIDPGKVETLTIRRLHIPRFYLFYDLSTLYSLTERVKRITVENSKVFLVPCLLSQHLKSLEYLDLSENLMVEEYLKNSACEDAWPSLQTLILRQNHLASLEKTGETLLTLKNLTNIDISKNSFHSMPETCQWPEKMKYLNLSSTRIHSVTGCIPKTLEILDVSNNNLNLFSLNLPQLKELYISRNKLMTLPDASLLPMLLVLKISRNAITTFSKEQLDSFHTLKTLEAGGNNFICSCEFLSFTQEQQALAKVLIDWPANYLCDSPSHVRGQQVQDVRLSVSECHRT

Kd: 32.2 nM
Substance: MMP2 (from UniProt P08253)
